As a reminder, the Kd is the free concentration of one partner at which half of the binding sites on the other are occupied at equilibrium, for simple one-to-one binding. A word on the koff: it is a measure of how fast the partners let go of each other. In general, kon refers to the rate constant with which the complex forms.

In the assay the target is T1, cTnI质控品重组蛋白 (recombinant cardiac troponin I quality-control antigen, made in-house) (human, UniProt P19429 1-210, limits assumed).
T1 construct: The assay paragraph says only 'cTnI质控品重组蛋白(公司自产重组抗原)', so the limits of the construct are unknown; also called 心肌肌钙蛋白I; cTnI质控品重组抗原
T1 sequence (P19429 whole entry): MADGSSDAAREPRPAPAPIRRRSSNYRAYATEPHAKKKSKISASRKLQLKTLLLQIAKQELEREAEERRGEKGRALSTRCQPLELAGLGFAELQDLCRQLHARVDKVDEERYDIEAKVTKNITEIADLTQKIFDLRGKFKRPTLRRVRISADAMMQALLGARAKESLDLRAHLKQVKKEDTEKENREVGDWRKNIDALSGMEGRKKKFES
Put plainly: BLI, antibody held on AMC sensor, cTnI recombinant protein in solution in a dilution series. For orientation: In BLI a coated tip is dipped into the sample, and binding shifts an interference pattern.

B1: Anti-cTnI 2E7 recombinant antibody (sample 1 of Example 1) (antibody, V domains shown)
VH: QVQLQQPGAELVRPGASVKLSCKASDYTFSSYWMQWVKQRPGQGLEWIGMLDPSDSETHYNQLFKDKATLTVDKSSNTAYMQLSSLTSEDSAVYFCAFLTSLGDYWGQGTTLTVSS
VL: DVLMTQTPLSLPVSLGDQASISCRSSQSIIHSQGNSYLEWYLQKPGQSPKLLLYKVSQRLSGVPDRFSGSGSGTDFTLKISRVEAEDLGVYYCFNGSHLPITFGAGTKLELK
As for B1, the Kd is 64.8 nM, the koff worked out at 0.0027 s⁻¹ and the kon is 41700 M⁻¹ s⁻¹.

(Values after patent CN111018979A (DONGGUAN PENGZHI BIOTECHNOLOGY CO LTD, dated 2020).)
